In CN111748032A (JIANGSU PROVINCIAL CENTER FOR DISEASE CONTROL AND …, dated 2020):

Target: 重组SARS-CoV2核蛋白(NP) (SARS-CoV-2, UniProt P0DTC9 1-419)
Assay: double-antibody sandwich lateral flow strip, paired with JS08, recombinant NP

| Binder | 检测限 (detection limit) [ng/mL] |
| --- | --- |
| JS01 (antibody, V domains shown) VH: QVQLVESGAEVKKPGSSVKVSCKASGGTFSSYAISWVRQAPGQGLEWMGGIIPIFGTANYAQKFQGRVTITADESTSTAYMELSSLRSEDTAVYYCARGGWRSSGYHDYSYYGMDVWGQGTTVTVSS VL: not shown | < 2 |
| JS05 (antibody, V domains shown) VH: EVQLLESGGGVVQPGRSLRLSCAASGFIFSSYGMHWVRQAPGKGLEWVAVIWYDGSNKYYADSVKGRFTISRDNSKNTLYLQMNSLRAEDTAVYYCARDLRGPTGWTFDYWGQGTLVTVSS VL: ENVLTQSPATLSLSPGERATLSCRASQSVSNYLAWYQQRPGQAPRLLIYDSSNRATGIPARFSGSGSGTDFTLTISSLEPEDFAVYYCQHRSNWKITFGQGTRLEIK | < 2 |
| JS12 (antibody, V domains shown) VH: EVQLLESGGGVVQPGRSLRLSCAASGFTFSSYGMHWVRQAPGKGLEWVAVIWYDGSNKYYADSVKGRFTISRDNSKNTLYLQMNSLRAEDTAVYYCARDGSGSYYWGSLDYWGQGTLVTVSS VL: ENVLTQSPATLSLSPGERATLSCRASQSVSSYLAWYQQKPGQAPRLLIYGASNRATGIPARFSGSGSGTDFTLTISSLEPEDFAVYYCQQRSNWPWTFGQGTKVEIK | < 2 |
| JS14 (antibody, V domains shown) VH: EVQLLESGGGVVQPGRSLRLSCAASGFTFSSYGMHWVRQAPGKGLEWVAVIWYDGSNKYYADSVKGRFTISRDNSKNTLYLQMNSLRAEDTAVYYCARDGSGSYYWGSLDYWGQGTLVTVSS VL: not shown | < 2 |
| JS13 (antibody, V domains shown) VH: QVQLVQSGAEVKKPGSSVKVSCKASGGTFSSYAISWVRQAPGQGLEWMGGIIPIFGTANYAQKFQGRVTITADESTSTAYMELSSLRSEDTAVYYCARGGWVICSSTSCYTKYSYYGMDVWGQGTTVTVSS VL: QSVLTQPPSVSAAPGQKVTISCSGSSSNIGNNYVSWYQQLPGTAPKLLIYDNNKRPSGIPDRFSGSKSGTSATLGITGLQTGDEADYYCGTWDSSLIARLFGGGTKLTVL | < 2 |
